Measurements as given in paper PMC5839991 (Nature structural & molecular biology, 2018).

Key:
[1] = target: recombinant human serum albumin from S. cerevisiae, biotin labeled (Homo sapiens, UniProt P02768, biotin (EZ-Link NHS-PEG4-Biotin)); experiment: SPR
[2] = target: mouse serum albumin, biotin labeled (Mus musculus, UniProt P07724, biotin (EZ-Link NHS-PEG4-Biotin)); experiment: SPR
Sequence of mouse serum albumin, biotin labeled (P07724 25-608): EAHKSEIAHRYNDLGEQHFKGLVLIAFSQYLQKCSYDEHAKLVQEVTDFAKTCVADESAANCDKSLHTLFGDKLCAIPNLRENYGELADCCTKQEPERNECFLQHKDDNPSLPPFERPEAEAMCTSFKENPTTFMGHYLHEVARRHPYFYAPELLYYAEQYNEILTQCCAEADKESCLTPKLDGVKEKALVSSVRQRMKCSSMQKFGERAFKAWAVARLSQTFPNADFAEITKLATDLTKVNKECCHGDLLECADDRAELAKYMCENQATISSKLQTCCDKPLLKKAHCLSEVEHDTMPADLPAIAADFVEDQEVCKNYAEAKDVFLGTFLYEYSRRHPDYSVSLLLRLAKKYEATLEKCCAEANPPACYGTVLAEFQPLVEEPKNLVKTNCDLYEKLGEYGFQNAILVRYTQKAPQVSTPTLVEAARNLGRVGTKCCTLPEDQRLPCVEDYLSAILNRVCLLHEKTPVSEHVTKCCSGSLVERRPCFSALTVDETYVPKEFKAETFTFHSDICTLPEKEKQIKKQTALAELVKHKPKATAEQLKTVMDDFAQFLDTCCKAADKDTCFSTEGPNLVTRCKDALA

B1: Nb.b201 (VHH)
VHH: QVQLQESGGGLVQAGGSLRLSCAASGYISDAYYMGWYRQAPGKEREFVATITHGTNTYYADSVKGRFTISRDNAKNTVYLQMNSLKPEDTAVYYCAVLETRSYSFRYWGQGTQVTVSS
Kd [1]: 430 nM
binding result [2]: no binding
